System: MS2 coat protein
Assay: apparent KD of MS2 coat protein; higher = weaker reporter binding
Settings: Eterna round: R107
Description: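 RNA-MaP round R107: designed RNA switches with theophylline, tryptophan, arginine or FMN aptamers are transcribed on-chip within common flanks. They are titrated with SNAP-549-labelled MS2 coat protein in RNA-MaP buffer (100 mM Tris pH 7.5, 80 mM KCl, 4 mM MgCl2), without ligand or with the indicated ligand. Median apparent KD per design.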

[1] = input ligand: theophylline 20 uM
[2] = input ligand: theophylline 2 mM
[3] = input ligand: tryptophan 2.4 mM

Sequence | apparent KD of MS2 coat protein (input ligand: arginine 13.2 mM) | apparent KD of MS2 coat protein (input ligand: none) | apparent KD of MS2 coat protein [1] | apparent KD of MS2 coat protein [2] | apparent KD of MS2 coat protein [3]
AGCACGGUGAUGGUAGCCGGACGCUAAGUACGAGGACCGGUACGGCCGCCACUCGGAGUCCUACGACAUGAGGAUCACCCAUGUA [Same State Trp A GF12] | 34.3 nM | 34.9 nM | 50 nM | 42.6 nM | 33.6 nM
AGCACUGUGACGGCCGCCACUACAUAAUAGGGUGGUCAGGUUCAUAUACAUGAGGAUCACCCAUGUAGGACCGGGUCUCAGUGCA [Omei Trp Exc B A v6] | 8.68 nM | 10.6 nM | 12.7 nM | 12.2 nM | 9.03 nM
AGCAUACAUUCUGAUACCAGAGACAUGAGGAUCACCCAUGUCCGAUCGUCCUGCCUCAGACUCCCUUGGCAGCAGGAUGUGUGCU [Exclusion Theophylline B GF6] | 13.1 nM | – | 17.6 nM | – | 13.8 nM
AGCCACUCGAGUGAUCCUCACGAGUGGCAACGAGGACCGGUACGGCCGCCACUCGAAUAACAUGAGGAUCACCCAUGUUUAUAAU [#01 Tryptophan A - Same State] | 51.1 nM | – | 176 nM | 258 nM | –
AGCCACUCGAGUGAUCCUCACGAGUGGCAACGAGGACCGGUACGGCCGCCACUCGAAUCAACAUGAGGAUCACCCAUGUAAUAAU [Brourdmod01] | 28.2 nM | 76.3 nM | 123 nM | 82.3 nM | 97.7 nM
AGCCAUGGAAACAUGGCGGCGGCAUGAGCGCGAGGACCGGUACGGCCGCCACUCGGGCGACAUGAGGAUCACCCAUGUUCCUCAU [ETA NP+V+V2 #22 Same Structure] | 145 nM | 289 nM | 312 nM | 451 nM | 422 nM
AGCCAUGGAAACAUGGCGGCGGCUUGGGCGCGAGGACCGGUACGGCCGCCACUCGGGCAACAUGAGGAUCACCCAUGUUCCUCAU [ETA NP+V+V2 #18] | 84.6 nM | 128 nM | 245 nM | 317 nM | 161 nM
AGCGACAUGCGUGAUACCAGCUACAUGAGGAUCACCCAUGUCAGCAGGGAACUGCUGUGUAGCCCUUGGCAGCACAGUGCAUGUC [Exclusion - Theophylline B (Freestyle 29)] | 13 nM | 10.8 nM | 12.3 nM | 23.1 nM | 10.2 nM
AGCGAUUUCGGAAGGAGCGGUACAUGAGGAUCACCCAUGUAUUCAAUCGUGAUCGGCGCGUGCCAGGUAGGUCGCCGAAGGCGUC [Veatat] | 12.4 nM | 9.95 nM | 14.9 nM | 10.9 nM | 11.9 nM
AGCGCAUCCGUAUAGGAUGCGCUCCAUGAAGGAGCGCGGGAAACCGCAGGUAGGUCGCGUGACAUGAGGAUCACCCAUGUGUAUU [#17 Same State - Arginine A] | 16.9 nM | 20 nM | 27.7 nM | 22.8 nM | 20.9 nM
AGCGGCUCGAAAGAGUCGCACUCAUGUGAAGGAGCGCGCGUAAGCGCAGGUAGGUCGCACAUGAGGAUCACCCAUGUACCUUCUA [MAT - Exclusion Arginine A - Mod of Eli - D21] | 68.5 nM | 235 nM | 206 nM | 262 nM | 118 nM
AGCUCGCAUCCUCUAGCGUCAAAGACGCGUCGAGGACCGGUACGGCCGCCACUCGACGUGAGGAUCACCCACGUCUAAGCGAGCA [TrypAX 10 #SwitchBubble #AlternativeMS2 #MS2Late #CuTurnoff] | 19.7 nM | 25.5 nM | 31.7 nM | 30.6 nM | 295 nM
AGCUUGUAGUCGGCCGCCACUAAUAGGGAUCCUAUCGAGGCGGGUAACAUGAGGAUCACCCAUGUUAGGACCGGGACAGCGAGGA [Cetian] | 10 nM | 16.6 nM | 15.4 nM | 11.6 nM | 10.8 nM
AGGAAUGUCACGGCCGCCACUGACGCUAAAAUGGGCUCGAGCCGACAUGAGGAUCACCCAUGUUCCAGGACCGGGUGAAUCCUGG [theeternabot_sameState_MS2_Trp_B_40] | 102 nM | – | 154 nM | 299 nM | –
AGGGACAUGAGGAUCACCCAUGUUGAAACUCGAGGACCGGUACGGCCGCCACUCGUAUAAUCGAUGUCCAUUUGGGAUUCCGGCU [theeternabot_sameState_MS2_Trp_A_17] | 21.4 nM | – | 32.8 nM | 39 nM | –
AGGUGCUGAUCGGCCGCCACUGAGAGGACGUGAACUUUAGCUGGUUACAUGAGGAUCACCCAUGUCAGGACCGGGAUUAGUUUGC [Quleorla] | 11.3 nM | – | 17.4 nM | 10.7 nM | –
AGUAAUCUAAGAGAUACCAGACGGUAUAUAACAUGAGGAUCACCCAUGUUUUGGGUGUACGUCCCUUGGCAGCUCAAAAUGAUAA [#06 Same State - Theophylline B] | 123 nM | – | 202 nM | – | 382 nM
AGUCUUAGUGGAAGGAGCGCAGUCAUAACAUGAGGAUCACCCAUGUCGAGGUGAGGGUCAUUGCAGGUAGGUCGCCAUAAUAGGA [#16 Same State - Arginine B] | 19.3 nM | 156 nM | 355 nM | 322 nM | 369 nM
AGUCUUGUGGGAAGGAGCGCAUACUUCACAUGAGGAUCACCCAUGUCAAGACGUGAGUCAGUGCAGGUAGGUCGCCUAACUAAGA [Same State - Arginine B (Freestyle 15)] | 53.1 nM | 30.3 nM | 37.4 nM | 35.8 nM | 28.2 nM

Sequence | apparent KD of MS2 coat protein (input ligand: arginine 13.2 mM) | apparent KD of MS2 coat protein (input ligand: none) | apparent KD of MS2 coat protein [1] | apparent KD of MS2 coat protein [2] | apparent KD of MS2 coat protein [3]
AGUUGACAAAAGUCAGCAACAUGAUCCGAAGGAGCGGGCGAAAGCCCAGGUAGGUCGCGGACAUGAGGAUCACCCAUGUCUCCUU [ArgAX 3 #OpenEnded #Sliding] | 46.6 nM | 74.3 nM | 70.6 nM | 100 nM | 63.9 nM
AUAAAUAUAACCGAUACCAGCCUUAUACAUGAGGAUCACCCAUGUUAUGCUUCCUUUUUUGGCCCUUGGCAGCGGAAAUGGGUAA [AstrosSSTheB#2] | 47.6 nM | – | 65.8 nM | – | 65.3 nM
AUAACACAUGAGGAUCACCCAUGUAAGGAUACCAGUUUCUGAUUAAACCCUUGGCAGCCUAGAGAUAGUCAUGUAAUAACGGCGA [theeternabot_sameState_MS2_Theo_A_19] | 12.4 nM | – | 18.1 nM | – | 12.2 nM
AUAACAUGAGGAUCACCCAUGUAAGCUGAAGGAGCGCUGGAAACAGCAGGUAGGUCGCAGCGGCGACCUUCAUGGGUAAGGUCGC [(M1)-(M2)-(Arg1)-(Arg2)-(A)'-(M)'-(A)''_Design4] | 33.1 nM | 32.8 nM | 41.2 nM | 40.5 nM | 30.4 nM
AUAACAUGAGGAUCACCCAUGUAAGGUGAUACCAGACGAAGUAAAGUCCCUUGGCAGCACAAGUAAAGUUACGAAUAUUGAUAGA [JR_SSTheophyA_Sub004] | 62.2 nM | – | 416 nM | – | 634 nM
AUAACUGUAAUAAACCGCAGGCUAGUGGAAGGAGCGCGGAAUAACGCAGGUAGGUCGCCACAAACAUGAGGAUCACCCAUGUGGC [SSAA NP+V+V2 #6] | 16 nM | 16 nM | 21.6 nM | 20.7 nM | 19.6 nM
AUAAGUAAUGUCUCGUGUAUUAUUACAGAUACCAGACUAUCCUAUGUCCCUUGGCAGCUGGAUUACAUGAGGAUCACCCAUGUGG [#11 Exclusion-TheophyllineA] | 37.6 nM | – | 49.5 nM | – | 42 nM
AUAAGUAAUGUUACGUGUUUUAUUACAGAUACCAGACUAUACGUUGUCCCUUGGCAGCUGAAUUACAUGAGGAUCACCCAUGUUG [JR_ExcTheophyA_Sub004] | 15.9 nM | – | 18.4 nM | – | 15.1 nM
AUAUAUACAUGAGGAUCACCCAUGUUAUUUCGAGGACCGGUACGGCCGCCACUCGAUAGAGUAGAAGUAUUUUGGGAUAGUUGAU [JR_SSTryptoA_Sub015] | 19.7 nM | 18.5 nM | 30.7 nM | 23.6 nM | 15.6 nM
AUAUAUGACAGAAGGAGCGCCAUGAACACACAUGAGGAUCACCCAUGUUUUUUUUGUGUUUGGCAGGUAGGUCGCUGACAUGAAA [Same State Arginine B 3] | 9.45 nM | 8.71 nM | 17.7 nM | 11.6 nM | 9.98 nM
AUAUGAUCAUAGGAUACCAGAAAUGGUAUUCCUUUAUUUCUUACAUGAGGAUCACCCAUGUUCCCUUGGCAGCUUAUGAUCAUAU [ETHB #4] | 79.3 nM | – | 169 nM | – | 107 nM
AUCAGUAGAACUGAUACCAGUCAAAGGCUUUGACCUCAUAACAUGAGGAUCACCCAUGUUGACCCUUGGCAGCAGUAGGCAAGGG [Theo B Ex t4] | 22.5 nM | – | 28.9 nM | – | 25.4 nM
AUCAUGGCCAUCGAUACCAGCUACAUGAGGAUCACCCAUGUAAACGGCGCGGUGAGAUGUAGCCCUUGGCAGCGAAGGGUCAAGG [Beonrexe] | 16.4 nM | 16.8 nM | 49.2 nM | 64 nM | 19.6 nM
AUCUACGUGGGUGAUACCAGCUGGUUAGUACACAUGAGGAUCACCCAUGUGCAGGCAGGCAGCCCUUGGCAGCACCGCAGUGGCU [theeternabot_sameState_MS2_Theo_B_36] | 42.8 nM | – | 221 nM | – | 60.9 nM
AUCUAUAGAGCGGCCGCCACUGAAUACAUGAGGAUCACCCAUGUAAUGUUAAGGUGGUCCUAGCUCAGGACCGGGCUCUAUAGAU [Tryp B Ex t4] | 30 nM | – | 60.6 nM | 53.3 nM | –
AUCUGUAUGUUUUCGUGUUUUAUUACAGAUACCAGACUAUACGUUGUCCCUUGGCAGCUGGAUGACAUGAGGAUCACCCAUGUUG [#27 Exclusion-TheophyllineA] | 24 nM | – | 41.2 nM | – | 31.8 nM
AUGCAGAACACGGCCGCCACUCAUUGUAGACAUGAGGAUCACCCAUGUAAUAGGGAUAUUUUAUUGAGGACCGGGUGUAAUGCAA [JR_SSTryptoB_Sub013] | 34.5 nM | – | 77.6 nM | 59.5 nM | –
AUGCAUAGCGGAAGGAGCGCAAUAGAAUGACAUGAGGAUCACCCAUGUGUGUGAUGUGGAUUGCAGGUAGGUCGCCGAGUGGUAU [Exclusion - Arginine B (Freestyle 3)] | 35.9 nM | 45.1 nM | 57.5 nM | 42.7 nM | 42.8 nM
